T1: Mcm4 (Saccharomyces cerevisiae, UniProt P30665 1-933)
T1 construct: Mcm4, Saccharomyces cerevisiae, full length; Subunit of m2, written alone for the contacts seen in the cryo-EM structures
T1 sequence (looked up): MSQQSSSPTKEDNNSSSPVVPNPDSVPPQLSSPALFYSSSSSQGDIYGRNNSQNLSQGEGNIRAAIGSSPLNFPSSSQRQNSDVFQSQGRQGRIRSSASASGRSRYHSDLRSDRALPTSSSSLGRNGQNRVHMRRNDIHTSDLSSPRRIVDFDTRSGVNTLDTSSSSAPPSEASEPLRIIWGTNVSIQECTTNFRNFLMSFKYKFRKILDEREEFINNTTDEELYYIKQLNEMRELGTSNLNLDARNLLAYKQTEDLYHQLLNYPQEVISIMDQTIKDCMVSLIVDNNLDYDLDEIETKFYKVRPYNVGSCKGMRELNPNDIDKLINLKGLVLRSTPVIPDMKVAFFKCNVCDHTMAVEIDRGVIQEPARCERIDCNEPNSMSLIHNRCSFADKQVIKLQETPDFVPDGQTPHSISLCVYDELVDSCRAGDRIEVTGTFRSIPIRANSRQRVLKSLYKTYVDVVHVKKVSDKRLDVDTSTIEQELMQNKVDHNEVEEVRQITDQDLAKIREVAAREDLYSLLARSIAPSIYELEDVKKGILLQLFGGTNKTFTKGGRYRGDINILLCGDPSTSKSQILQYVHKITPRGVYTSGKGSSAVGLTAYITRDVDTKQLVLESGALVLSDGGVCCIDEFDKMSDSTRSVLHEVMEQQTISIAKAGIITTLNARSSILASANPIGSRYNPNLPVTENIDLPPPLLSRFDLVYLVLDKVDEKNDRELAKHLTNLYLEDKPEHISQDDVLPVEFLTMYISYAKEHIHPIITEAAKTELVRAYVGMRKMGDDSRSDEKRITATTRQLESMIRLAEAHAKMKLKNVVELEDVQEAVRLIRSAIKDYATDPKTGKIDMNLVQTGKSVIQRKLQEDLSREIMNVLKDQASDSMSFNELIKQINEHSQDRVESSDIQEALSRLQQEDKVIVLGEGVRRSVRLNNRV

T2: Mcm7 (Saccharomyces cerevisiae, UniProt P38132 1-845)
T2 construct: Mcm7, Saccharomyces cerevisiae, full length; Subunit of m2, written alone for the contacts seen in the cryo-EM structures
T2 sequence (looked up): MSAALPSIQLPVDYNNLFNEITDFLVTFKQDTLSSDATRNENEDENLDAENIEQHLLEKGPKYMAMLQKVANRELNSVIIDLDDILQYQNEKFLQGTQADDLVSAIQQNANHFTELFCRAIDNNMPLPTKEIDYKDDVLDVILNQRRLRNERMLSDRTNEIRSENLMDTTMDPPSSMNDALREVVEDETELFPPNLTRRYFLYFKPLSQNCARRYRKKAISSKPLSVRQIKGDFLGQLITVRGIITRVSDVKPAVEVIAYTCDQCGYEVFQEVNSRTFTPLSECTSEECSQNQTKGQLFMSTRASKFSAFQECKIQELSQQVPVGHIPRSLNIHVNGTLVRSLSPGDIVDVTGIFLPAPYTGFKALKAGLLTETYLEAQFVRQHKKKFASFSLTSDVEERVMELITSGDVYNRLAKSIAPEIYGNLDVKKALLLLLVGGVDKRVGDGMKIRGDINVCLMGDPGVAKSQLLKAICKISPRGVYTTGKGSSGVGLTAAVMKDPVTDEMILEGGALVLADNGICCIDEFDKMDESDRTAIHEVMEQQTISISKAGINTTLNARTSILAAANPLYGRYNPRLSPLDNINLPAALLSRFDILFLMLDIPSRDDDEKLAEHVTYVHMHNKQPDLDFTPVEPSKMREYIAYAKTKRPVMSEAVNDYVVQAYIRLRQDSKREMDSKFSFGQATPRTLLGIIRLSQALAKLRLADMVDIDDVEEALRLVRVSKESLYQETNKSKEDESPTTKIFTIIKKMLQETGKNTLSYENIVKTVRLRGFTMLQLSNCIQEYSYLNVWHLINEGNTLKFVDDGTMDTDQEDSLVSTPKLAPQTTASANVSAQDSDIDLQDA

T3: Mcm2 (Saccharomyces cerevisiae, UniProt P29469 1-868)
T3 construct: Mcm2, Saccharomyces cerevisiae, full length; Subunit of m2, written alone for the contacts seen in the cryo-EM structures
T3 sequence (looked up): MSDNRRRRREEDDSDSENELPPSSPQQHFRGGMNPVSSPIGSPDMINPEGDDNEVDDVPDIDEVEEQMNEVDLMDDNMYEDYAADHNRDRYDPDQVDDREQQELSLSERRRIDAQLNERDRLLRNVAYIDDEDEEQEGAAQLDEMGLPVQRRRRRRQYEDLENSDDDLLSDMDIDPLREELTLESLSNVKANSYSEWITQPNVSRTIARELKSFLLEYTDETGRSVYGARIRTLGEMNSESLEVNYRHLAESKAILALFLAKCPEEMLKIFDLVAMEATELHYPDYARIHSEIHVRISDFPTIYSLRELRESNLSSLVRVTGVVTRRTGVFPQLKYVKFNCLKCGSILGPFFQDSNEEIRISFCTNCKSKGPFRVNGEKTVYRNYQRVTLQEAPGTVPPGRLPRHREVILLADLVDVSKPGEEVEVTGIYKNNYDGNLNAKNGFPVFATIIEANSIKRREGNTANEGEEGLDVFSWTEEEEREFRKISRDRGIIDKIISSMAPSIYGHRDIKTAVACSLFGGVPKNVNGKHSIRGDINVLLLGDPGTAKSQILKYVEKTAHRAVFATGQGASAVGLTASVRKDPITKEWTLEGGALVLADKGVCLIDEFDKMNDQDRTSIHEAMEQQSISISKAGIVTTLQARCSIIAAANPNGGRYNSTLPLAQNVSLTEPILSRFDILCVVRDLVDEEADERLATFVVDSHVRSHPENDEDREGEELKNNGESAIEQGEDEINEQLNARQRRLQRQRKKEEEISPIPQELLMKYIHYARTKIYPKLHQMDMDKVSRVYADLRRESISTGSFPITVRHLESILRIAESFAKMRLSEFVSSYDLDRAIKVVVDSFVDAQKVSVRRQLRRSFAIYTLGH

B1: Cdc7 (enzyme, Saccharomyces cerevisiae, UniProt P06243 1-507, looked up)
chain: MTSKTKNIDDIPPEIKEEMIQLYHDLPGIENEYKLIDKIGEGTFSSVYKAKDITGKITKKFASHFWNYGSNYVALKKIYVTSSPQRIYNELNLLYIMTGSSRVAPLCDAKRVRDQVIAVLPYYPHEEFRTFYRDLPIKGIKKYIWELLRALKFVHSKGIIHRDIKPTNFLFNLELGRGVLVDFGLAEAQMDYKSMISSQNDYDNYANTNHDGGYSMRNHEQFCPCIMRNQYSPNSHNQTPPMVTIQNGKVVHLNNVNGVDLTKGYPKNETRRIKRANRAGTRGFRAPEVLMKCGAQSTKIDIWSVGVILLSLLGRRFPMFQSLDDADSLLELCTIFGWKELRKCAALHGLGFEASGLIWDKPNGYSNGLKEFVYDLLNKECTIGTFPEYSVAFETFGFLQQELHDRMSIEPQLPDPKTNMDAVDAYELKKYQEEIWSDHYWCFQVLEQCFEMDPQKRSSAEDLLKTPFFNELNENTYLLDGESTDEDDVVSSSEADLLDKDVLLISE
notes: Cdc7 serine/threonine kinase, Saccharomyces cerevisiae, full length (87% resolved in the map); Subunit of m1, written alone for the contacts seen in the cryo-EM structures; also called Cdc7 kinase; Cdc7 serine/threonine kinase; source: budding yeast cells, purified as subunit of DDK
B2: Dbf4 (natural protein, Saccharomyces cerevisiae, UniProt P32325 1-704, looked up)
chain: MVSPTKMIIRSPLKETDTNLKHNNGIAASTTAAGHLNVFSNDNNCNNNNTTESFPKKRSLERLELQQQQHLHEKKRARIERARSIEGAVQVSKGTGLKNVEPRVTPKELLEWQTNWKKIMKRDSRIYFDITDDVEMNTYNKSKMDKRRDLLKRGFLTLGAQITQFFDTTVTIVITRRSVENIYLLKDTDILSRAKKNYMKVWSYEKAARFLKNLDVDLDHLSKTKSASLAAPTLSNLLHNEKLYGPTDRDPRTKRDDIHYFKYPHVYLYDLWQTWAPIITLEWKPQELTNLDELPYPILKIGSFGRCPFIGDRNYDESSYKRVVKRYSRDKANKKYALQLRALFQYHADTLLNTSSVNDQTKNLIFIPHTCNDSTKSFKKWMQEKAKNFEKTELKKTDDSAVQDVRNEHADQTDEKNSILLNETETKEPPLKEEKENKQSIAEESNKYPQRKELAATPKLNHPVLATFARQETEEVPDDLCTLKTKSRQAFEIKASGAHQSNDVATSFGNGLGPTRASVMSKNMKSLSRLMVDRKLGVKQTNGNNKNYTATIATTAETSKENRHRLDFNALKKDEAPSKETGKDSAVHLETNRKPQNFPKVATKSVSADSKVHNDIKITTTESPTASKKSTSTNVTLHFNAQTAQTAQPVKKETVKNSGYCENCRVKYESLEQHIVSEKHLSFAENDLNFEAIDSLIENLRFQI
notes: Dbf4, Saccharomyces cerevisiae, full length (41% resolved in the map); Subunit of m1, written alone for the contacts seen in the cryo-EM structures; also called dumbbell former 4; source: budding yeast cells, purified as subunit of DDK

Legend:
Experiment in all cases: cryo-EM structure; MD-(ATPγS): 250 nM DH released from beads by AluI + 750 nM DDK, 10 min 24 °C, buffer C with 3 mM ATPγS; GraFix glycerol gradient with glutaraldehyde; states I-III
Settings in all cases: both partners purified
[1] = target: T1, Mcm4
[2] = target: B2
[3] = target: T4, Mcm6 (Saccharomyces cerevisiae, UniProt P53091 1-1017)
T4 construct: Mcm6, Saccharomyces cerevisiae, full length; Subunit of m2, written alone for the contacts seen in the cryo-EM structures
T4 sequence (P53091 whole entry): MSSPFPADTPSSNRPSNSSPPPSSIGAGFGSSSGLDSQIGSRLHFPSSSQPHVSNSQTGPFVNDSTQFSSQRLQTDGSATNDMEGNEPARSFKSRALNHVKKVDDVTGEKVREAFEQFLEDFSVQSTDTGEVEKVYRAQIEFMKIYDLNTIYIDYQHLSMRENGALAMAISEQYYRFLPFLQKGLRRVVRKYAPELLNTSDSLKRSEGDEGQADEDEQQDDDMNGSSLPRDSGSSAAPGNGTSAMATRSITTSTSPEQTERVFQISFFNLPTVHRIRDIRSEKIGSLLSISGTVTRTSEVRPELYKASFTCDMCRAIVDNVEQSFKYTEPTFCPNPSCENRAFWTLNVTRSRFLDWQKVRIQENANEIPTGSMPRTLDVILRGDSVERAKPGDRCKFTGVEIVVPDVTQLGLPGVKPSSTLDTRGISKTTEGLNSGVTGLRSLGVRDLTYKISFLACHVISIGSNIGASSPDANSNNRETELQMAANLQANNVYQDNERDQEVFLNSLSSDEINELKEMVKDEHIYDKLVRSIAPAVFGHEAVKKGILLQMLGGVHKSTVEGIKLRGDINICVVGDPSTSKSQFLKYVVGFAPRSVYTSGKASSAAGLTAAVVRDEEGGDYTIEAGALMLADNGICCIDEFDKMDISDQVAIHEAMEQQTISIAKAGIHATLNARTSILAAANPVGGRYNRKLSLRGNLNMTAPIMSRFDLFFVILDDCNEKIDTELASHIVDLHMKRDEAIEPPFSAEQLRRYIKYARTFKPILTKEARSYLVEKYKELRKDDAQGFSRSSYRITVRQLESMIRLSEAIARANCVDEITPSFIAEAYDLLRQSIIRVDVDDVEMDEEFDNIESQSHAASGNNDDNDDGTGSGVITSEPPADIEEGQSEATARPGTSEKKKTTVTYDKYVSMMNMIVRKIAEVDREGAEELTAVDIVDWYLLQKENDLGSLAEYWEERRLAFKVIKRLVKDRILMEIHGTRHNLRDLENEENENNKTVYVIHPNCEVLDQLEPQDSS

[4] = target: T2, Mcm7
[5] = target: T3, Mcm2

Measured: binding result

B1
binds: [1] | [2]

B2
binds: [1] | [3] | [4] | [5]

Source: paper PMC9133112, “The structural basis of Cdc7-Dbf4 kinase dependent targeting and phosphorylation of the MCM2-7 double hexamer” (Nature Communications, 2022)
